In patent publication US6716809B1, “Mage-A3 peptides presented by HLA class molecules” (priority 1997, dated 2004):

Columns and labels:
Assay type in all cases: cell-based, human
[1] = test system: clone C3.43; assay: IFN-γ production by CD4 clone C3.43 stimulated with peptide- or protein-pulsed EBV-B cells; settings: 20 μg/ml protein
Experimental: (§1) EBV-B cells from hemochromatosis patient 1981 (LB-1981-EBV) were incubated with 20 μg/ml of ovalbumin (OVA) or MAGE-A3 protein (bacteria) for 20 h. Ten thousand cells were distributed in microwells to which an aliquot of microculture C3 (˜4,000 effector cells) was added. Several clones were obtained from microculture C3, in particular CD4^+ clones LB1981-CD4 527/C3.22 (referred to hereafter as clone C3.22) and LB1981-CD4 527/C3.43 (referred to hereafter as clone C3.43). The clones C3.22 and C3.43 (˜3,000 cells) were stimulated with LB-1981-EBV incubated with 20 μg/ml of MAGE-A3 (˜16,000 cells) or transduced with a retrovirus coding for a fusion protein Ii-MAGE-A3 (˜20,000 cells). IFN-γ production in the supernatant was estimated after overnight culture by ELISA. They both recognized autologous EBV-B cells loaded with protein MAGE-A3 (bacteria) or transduced with a retrovirus encoding a truncated invariant chain (Ii)-MAGE-A3 fusion protein (FIG. 17). These (most probably twin) clones recognized cells expressing Ii-MAGE-A3 endogenously and therefore they are directed against a MAGE-A3-derived antigen and not against a contaminant in the batch of protein.
(§2) The antigenic peptides were identified as described above, except that the peptides were tested at a concentration of 1 μg/ml and that the test was performed in 100 μl. Peptides LGDPKKLLTQHFVQEN (SEQ ID NO:82), KKLLTQHFVQENYLEY (SEQ ID NO:83), TQHFVQENYLEYRQVP (SEQ ID NO:84) and VQENYLEYRQVPGSDP (SEQ ID NO:85) were tested. Autologous EBV-B cells were incubated for 1 h with 1 μg/ml of each of the peptides. Clone C3.43 (3,000 cells) was then cocultured with 20,000 peptide-pulsed cells for 20 h. IFN-γ production in the supernatant was measured by ELISA.
(§3) Patient LB1981 was typed DPB1*0401. To confirm that DPB1*0401 was the presenting HLA-DP molecule, additional EBV-B cell lines were tested. Autologous LB 1981-EBV or allogeneic-EBV-B cells were incubated for 1 h with 1 μg/ml of peptides, and washed. CD4 clones (3,000 cells) were then incubated for 20 h with 20,000 peptide-pulsed EBV-B cells. IFN-γ released in the supernatant was measured by ELISA. Those EBV-B cell lines expressing DPB1*0401 were able to present the MAGE-A3243-258 peptide to clone C3.22 (Table VII). DPB1*0401 is expressed in approximately 64% of Caucasians.

[2] = test system: CD4 T cell clone LB 1555 CD4 436/B6.37; assay: Recognition of retrovirally transduced cells by CD4 T cell clone (IFN-γ ELISA); settings: overnight coculture
Experimental: The EBV transformed cells were infected by resuspending the cells in an infection cocktail and centrifugation. Target cells were resuspended in 60 mm tissue culture plates (Falcon) at a density of 1.0×10^6 cells in 4 ml infection cocktail. The plates were centrifuged for 2 hours at 32° C. and 1200 rcf in an IEC centrifuge, rotor type 228. For each plate to be transduced, 4 ml of […] was prepared by diluting the viral supernatant 1:2 in EBV cell growth medium and adding protamine sulfate to a final concentration of 6 μg/ml. Centrifugation was followed by another 2 hours of incubation in a humidified incubator at 37° C. and cells were transferred to 4 ml of target cell growth medium. This transduction cycle was carried out immediately after plating the cells and was repeated at 24 and 48 hours. […]
5000 T cells of LB705 CTL 434/1 or 3000 T cells of clone LB1555 CD4 436/B6.37 were washed and cultured overnight in the presence of 5000 retrovirally transduced EBV B cells of MZ2-EBV, or LG2-EBV B cells, in 100 μl ID medium containing 10% HS, AAG and 50 U/ml rh IL-2 in a round-bottom 96 wells plate. […] After three washings the plates were incubated with 50 μl per well horseradish peroxidase conjugated streptavidin (1:3000 in PBS/0.5% BSA) for 30 min at RT, which was detected by TMB substrate, and H2SO4 to stop the reaction. The optical density was read at 450 nm. […]

[3] = test system: clone C3.22; assay: IFN-γ production by CD4 clone C3.22 stimulated with peptide- or protein-pulsed EBV-B cells; settings: 20 μg/ml protein
Experimental: as §1, §2, §3

B1: MAGE-A3: MAGE-A3 protein; recombinant His-MAGE-A3 produced in E. coli, or expressed from MFG MAGE-A3 retrovirus in Example 6 (protein, listed as Homo sapiens)
chain: MPLEQRSQHCKPEEGLEARGEALGLVGAQAPATEEQEAASSSSTLVEVTLGEVPAAESPDPPQSPQGASSLPTTMNYPLWSQSYEDSSNQEEEGPSTFPDLESEFQAALSRKVAELVHFLLLKYRAREPVTKAEMLGSVVGNWQYFFPVIFSKASSSLQLVFGIELMEVDPIGHLYIFATCLGLSYDGLLGDNQIMPKAGLLIIVLAIIAREGDCAPEEKIWEELSVLEVFEGREDSILGDPKKLLTQHFVQENYLEYRQVPGSDPACYEFLWGPRALVETSYVKVLHHMVKISGGPHISYPPLHEWVLREGEE
modifications: His tag
recognition by clone C3.43 of autologous EBV-B cells loaded with protein [1]: recognized | recognition of transduced MZ2 EBV by CD4 clone 436/B6.37 (IFN-γ release) [2]: not recognized | recognition by clone C3.22 of autologous EBV-B cells loaded with protein [3]: recognized
